Experimental data reported in patent publication US20240108748.

Biological target: T1, {Pra}KTFKC plasmin-cleavable peptide, as Cholesterol-KTFKC-PEG2000 (not fully specified)
T1 chain: KTFKC

B1: Human plasmin (protein)
chain: KVYLSECKTGNGKNYRGTMSKTKNGITCQKWSSTSPHRPRFSPATHPSEGLEENYCRNPDNDPQGPWCYTTDPEKRYDYCDILECEEECMHCSGENYDGKISKTMSGLECQAWDSQSPHAHGYIPSKFPNKNLKKNYCRNPDRELRPWCFTTDPNKRWELCDIPRCTTPPPSSGPTYQCLKGTGENYRGNVAVTVSGHTCQHWSAQTPHTHNRTPENFPCKNLDENYCRNPDGKRAPWCHTTNSQVRWEYCKIPSCDSSPVSTEQLAPTAPPELTPVVQDCYHGDGQSYRGTSSTTTTGKKCQSWSSMTPHRHQKTPENYPNAGLTMNYCRNPDADKGPWCFTTDPSVRWEYCNLKKCSGTEASVVAPPPVVLLPDVETPSEEDCMFGNGKGYRGKRATTVTGTPCQDWAAQEPHRHSIFTPETNPRAGLEKNYCRNPDGDVGGPWCYTTNPRKLYDYCDVPQCAAPSFDCGKPQVEPKKCPGRVVGGCVAHPHSWPWQVSLRTRFGMHFCGGTLISPEWVLTAAHCLEKSPRPSSYKVILGAHQEVNLEPHVQEIEVSRLFLEPTRKDIALLKLSSPAVITDKVIPACLPSPNYVVADRTECFITGWGETQGTFGAGLLKEAQLPVIENKVCNRYEFLNGRVQSTELCAGHLAGGTDSCQGDSGGPLVCFEKDKYILQGVTSWGLGCARPNKPGVYVRVSRFVTWIEGVMRNN
Q: How did the “Annexin V staining of immobilized PPNs after plasmin incubation (phosphatidylserine exposure after removal of the PEG cloak)” value turn out when B1 was run?
A: Its value is “PPNs incubated with ≥50 nM human plasmin had increased Annexin V staining”.
